Data published in the nanobody polyreactivity screen of Harvey et al. (2022).

test: yeast display, Sf9 membrane polyspecificity reagent, FACS + sequencing; frameworks hold sequencing errors
Summary of the method: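 Nanobodies from a synthetic yeast display library (Saccharomyces cerevisiae BJ5465), induced 36–48 hours with galactose, were stained 1 hour at 4 °C with 10% biotinylated, detergent-solubilized Sf9 membrane reagent, enriched on streptavidin microbeads, then FACS-sorted. Anti-HA (expression) and streptavidin (reagent binding) fluorescence set low and high (top ~1%) gates. Polyreactivity labels come from the gate of origin. Genes were colony-PCR amplified, MiSeq 2 × 250 sequenced and filtered by CDR length.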

Sequence | polyreactivity (PSR sort gate)
QVQLVESGGGLVQAGGSLRLSCAASGRIFYRYAMGWYRQAPGKERELVASISGSGGRTYYADSVKGRFTISRDNAKNTVYLQMNSLKPEDTAVYYCAARIRPSYDWGQGTQVTVSS | high polyreactivity
QVQLVESGGGLVQAGGSLRLSCAASGRIFYRYAMGWYRQAPWKEWELVADISSGTSTNYADSVKGRFTLSRDNAKNTVDLQMNSLKPEDTAVYYCAADEVRSAWRCSSPPDYDHWGQGTQVTVSS | low polyreactivity
QVQLVESGGGLVQAGGSLRLSCAASGRIFYSNAMGWYRQAPGKERELVAAISWSTGSTYYADSVKGRFTISRDHAKNTVYLQMNSLKPEDTAVYYCYKDDAQTRSFASTWYDYWGQGTQVTVSS | high polyreactivity
QVQLVESGGGLVQAGGSLRLSCAASGRIFYSNAMGWYRQAPGKERELVAAITRSGGGTYYADSVKGRFTISRDNAKNTVYLQMNSLKPEDTAVYYCARPAFFRSLSTSDDYWGQGTQVTVSS | high polyreactivity
QVQLVESGGGLVQAGGSLRLSCAASGRIFYSNAMGWYRQAPGKERELVATISTGGSTYADSVKGRFTISRDNAKNTVYLQMNSLKPEETAVYYCAVDEWRWRVGAVAYYYWGQGTQVTVSS | low polyreactivity
QVQLVESGGGLVQAGGSLRLSCAASGRIFYSNTMGWYRQAPGKERELVARIDTGGGSTYADSVKGRFTISRDNAKNTVYLQMNSLKPEDTAVYYCAALKFEAWAGEDYWGQGTQVTVSS | low polyreactivity
QVQLVESGGGLVQAGGSLRLSCAASGRIFYSNTMGWYRQAPGKERELVARIDTGGGSTYADSVKGRFTISRDNAKNTVYLQMNSLKPEDTAVYYCAKTIAVNTWYYYWGQGTQVTVSS | low polyreactivity
QVQLVESGGGLVQAGGSLRLSCAASGRIFYSNTMGWYRQAPGKERELVARIDTGGGSTYADSVKGRFTISRDNAKNTVYLQMNSLKPEDTAVYYCNKKGRWRSWGSTSLVSMDYWGQGTQVTVSS | low polyreactivity
QVQLVESGGGLVQAGGSLRLSCAASGRIFYSNVMGWYRQAPGKERELVAAISGRTGGTYYADSVKGRFTISRDNAKNTVYLQMNSLIPEDTAVYYCAARVIYYYGSGPYDYWGQGTQVTVSS | low polyreactivity
QVQLVESGGGLVQAGGSLRLSCAASGRIFYSYAMAWYRQAPGKERELVAAISSRTGSTYYADSVKGRFTISRDNAKITVYLQMNSLIPEDTAVYYCAARKKYRFDYWGQGTQVTVSS | high polyreactivity
QVQLVESGGGLVQAGGSLRLSCAASGRIFYSYAMGWYRQAPGKERELVAAINSGDRTNYADSVKGRFTISRDNAKNTVYLQMNSLKPEDTAVYYCATDDYPWRRHPWYAGYDSWGQGTQVTVSS | low polyreactivity
QVQLVESGGGLVQAGGSLRLSCAASGRIFYSYAMGWYRQAPGKERELVAAIRSTGSTNYADSVKGRFTISRDNAKNTVYLQMNSLKPEDTAVYYCAARTSYRSSLYGYWGQGTQVTVSS | high polyreactivity
QVQLVESGGGLVQAGGSLRLSCAASGRIFYSYAMGWYRQAPGKERELVAGINWRGSNTYYADSVKGRFTISRDNAKNTVYLQINSLKPEDTAVYYCKAGRRQDYRYNYWGQGTQVTVSS | high polyreactivity
QVQLVESGGGLVQAGGSLRLSCAASGRIFYSYAMGWYRQAPGKERELVARITRGSSTYYADSVKGRFTISRDNAKNTVYLQMNSLKPEDTAVYYCAAAVYFQVAFAYYYWGQGTQVTVSS | low polyreactivity
QVQLVESGGGLVQAGGSLRLSCAASGRIFYSYAMGWYRQAPGKERELVATISRRGGSTYYADSVKGRFTISRDNAKNTVYLQMNSLKPEDTAVYYCNKGIPTRSVRSYDYWGQGTQVTVSS | high polyreactivity
QVQLVESGGGLVQAGGSLRLSCAASGRIFYTNAMGWYRQAPGKERELVAGITGSGDSTYYADSVKGRFTISRDNAKNTVYLQMNSLKPEDTAVYYCAARWRYVLMDYWGQGTQVTVSS | low polyreactivity
QVQLVESGGGLVQAGGSLRLSCAASGRIFYTNGMAWYRQAPGKERELVATIRSGDGRTYYADSVKGRFTISRDNAKNTVYLQMNSLKPEDTAVYYCNASRVVYRQAYLYGFDYWGQGTQVTVSS | low polyreactivity
QVQLVESGGGLVQAGGSLRLSCAASGRIFYTYAMGWYRQAPGKERELVAAISRSGVSTYYADSVKGRFTISRDTAKNTVYLQMNSLKPEDTAVYYCAARWRSGFTSGDYWGQGTQVTVSS | low polyreactivity
QVQLVESGGGLVQAGGSLRLSCAASGRIFYTYAMGWYRQAPGKERELVAAITTSGGRTYYADSVKGRFTISRDNAKNTVYLQMNSLKPEDTAVYYCNKLSSDSYNYWGQGTQVTVSS | high polyreactivity
QVQLVESGGGLVQAGGSLRLSCAASGRIFYTYAMGWYRQAPGKERELVATISRSSSTYYADSVKGRFTISRDNAKNTVYLQMNSLKPEDTAVYYCATRSASQLLDYWGQGTQVTVSS | low polyreactivity
QVQLVESGGGLVQAGGSLRLSCAASGRIFYVNAMGWYRQAPGKERELVAAIRSAGGTYYADSVKGRFTISRDNAKNTVYLEMNWLNPEDSAVYYCNADASYREYRLYLIEMDYLGQGTQVTVSS | high polyreactivity

Sequence | polyreactivity (PSR sort gate)
QVQLVESGGGLVQAGGSLRLSCAASGRIFYVNAMGWYRQAPGKERELVATIRRGGDTNYADSVKGRFTISRDNAKNTVYLQMNSLKPEDTAVYYCASKAYQSSYQRYYWGQGTQVTVSS | high polyreactivity
QVQLVESGGGLVQAGGSLRLSCAASGRIFYVNGMGWYRQAPGNERELVAAIRISGGRTYYADSVKGRFTISRDYAKYTVYFQMNSLKPEDTAVYFCAKRYYYPYAGYDYWGQGTQVTVSS | high polyreactivity
QVQLVESGGGLVQAGGSLRLSCAASGRIFYVYALGWYRQAPGKERELVAAIDWNGGTTYYADSVKGRFTISRDNAKNTVYLQMNSLKPEDTAVYYCAVSLQGYNQVDYYYWGQGTQVTVSS | high polyreactivity
QVQLVESGGGLVQAGGSLRLSCAASGRIFYVYAMGWYRQAPGKERELVAGIRSGGSTNYADSVKGRFTISRDNAKNTVYLLMNSLKPEDTAVYYCAVQSYGALSPQLVYRRYDYWGQGTQVTVSS | high polyreactivity
QVQLVESGGGLVQAGGSLRLSCAASGRIFYVYAMGWYRQAPGKERELVATITYRGDTDYADSVKGRFTSSRDNAKNTVYLQMNSRKPEDTAVYYCAKDFEAGDDYFAYDYWGQGTQVTVSS | low polyreactivity
QVQLVESGGGLVQAGGSLRLSCAASGRIFYVYTMGWYRQAPGKERELVAAISWSGGSTHYADSVKGRFTIARDNAKNTVYLQMNSLKPEDTAVYYCNKGVVSRVAFEYWGQGTQVTVSS | low polyreactivity
QVQLVESGGGLVQAGGSLRLSCAASGRIFYWNAMGWYRQAPGKEREFVAAISWSGGSTYADSVKGRFTISRDNAKNTVYLQMNSLKPEDTAVYYCATRVSRSFRAYDYWGQGTQVTVSS | high polyreactivity
QVQLVESGGGLVQAGGSLRLSCAASGRIFYYNAKGWYRQAPGKERELVATISRGGSTYYADSVKGRFTISRDNAKNTVDLQMNSLKPEDTAVYYCATRVLYYQSSYDYWGQGTQVTVSS | high polyreactivity
QVQLVESGGGLVQAGGSLRLSCAASGRIFYYNAMGWYRQAPGKERELVASITWSGARTYYADSVKGRFTISRDNAKNTVYLQMNSLKPEDTAVYYCNAATSYYTYTYGYWGQGTQVTVSS | high polyreactivity
QVQLVESGGGLVQAGGSLRLSCAASGRIFYYNDMGWYRQAPGKERELVAAITWTDDGTYYADSVKGRFTISRDYAKNTVYLQMNSLKPEDTAVYYFAAETFYGFEYWGQGTQVTLSS | low polyreactivity
QVQLVESGGGLVQAGGSLRLSCAASGRIFYYNGMGWYRQAPGKERELVAAISRGGSTYYADSVKGRFTISRDNAKNTVYLQMNSLKPEDTAVYYCAARWKPPYWGRYYYWGQGTQVTVSS | high polyreactivity
QVQLVESGGGLVQAGGSLRLSCAASGRIFYYNGMGWYRQAPGKERELVAAITANGGSTYYADSVKGRFTISRDNAKHTVYLQMNSLKPEDTAVYYCAAVYQLYYSAGRGYDYWGQGTQVTVSS | high polyreactivity
QVQLVESGGGLVQAGGSLRLSCAASGRIFYYNTMGWYRQAPGKERELVARITYSGGRTYYADSVKGRFTISRDNAKNTVYLQMNSLKPEDTAVYYCNAKPRYYQTGGGYWGQGTQVTVSS | high polyreactivity
QVQLVESGGGLVQAGGSLRLSCAASGRIFYYNVMGWYRQAHGKERELVASISYSSTRTYYADSVKGRFTISRDNAKNTVYLQMNRLKQEDTAVYYCAVDTYAYRGVSYWSERTYYYWGQGTQVNVSS | low polyreactivity
QVQLVESGGGLVQAGGSLRLSCAASGRIFYYYAMGWSRQAPGKERELVAAITRRGGSTYYADSVKGRFTISRDNAKNTVYLQMNSLKPEDPADYYCAKPDRTGWLDGEYWGQGTQVTVSS | low polyreactivity
QVQLVESGGGLVQAGGSLRLSCAASGRIFYYYAMGWYRPAPGKERELVAAINRDGGRTYYADSVKGRFTISRDNAKNTVYLQMNSLKPEDTAVYYCAASYGYVYTTSLDYWGQGTQVTVSS | low polyreactivity
QVQLVESGGGLVQAGGSLRLSCAASGRIFYYYAMGWYRQAPATERELFAGINSGGNTYADSVKGRFTISRDNAKNTVYLQMNSLKPEDTAVYYCATDFYSYAGGYYHHDHWGQGTQVTVSS | high polyreactivity
QVQLVESGGGLVQAGGSLRLSCAASGRIFYYYAMGWYRQAPGKERELVAAIRWSGGSTYYADSVKGRFTISRDNEKNTVYLQMNSLKPEDTAVYYCAADSRTNGYDYWGQGTQVTVSS | high polyreactivity
QVQLVESGGGLVQAGGSLRLSCAASGRIFYYYAMGWYRQAPGKERELVAAISSIDGTTYYADSVKGRFTISRDNAKNTVYLQMNSLKPEDTAVYYCAAEDPADQYDYWGQGTQVTVSS | high polyreactivity
QVQLVESGGGLVQAGGSLRLSCAASGRIFYYYAMGWYRQAPGKERELVAAISSIGGSTYADSVKGRFTISRDNAKNTVYLQMNSLKPEDTAVYYCAADGFKRLYTQVAHVRYDYWGQGTQVTVSS | low polyreactivity
